Measurements taken from patent US20230038638A1, “COMPLEMENT FACTOR I-RELATED COMPOSITIONS AND METHODS” (published 2023).

Key:
[1] = target: soluble human C3b (human) (UniProt P01024)
human C4b (human) = target: T1, human C4b (human) (UniProt P0C0L5)
T1 sequence: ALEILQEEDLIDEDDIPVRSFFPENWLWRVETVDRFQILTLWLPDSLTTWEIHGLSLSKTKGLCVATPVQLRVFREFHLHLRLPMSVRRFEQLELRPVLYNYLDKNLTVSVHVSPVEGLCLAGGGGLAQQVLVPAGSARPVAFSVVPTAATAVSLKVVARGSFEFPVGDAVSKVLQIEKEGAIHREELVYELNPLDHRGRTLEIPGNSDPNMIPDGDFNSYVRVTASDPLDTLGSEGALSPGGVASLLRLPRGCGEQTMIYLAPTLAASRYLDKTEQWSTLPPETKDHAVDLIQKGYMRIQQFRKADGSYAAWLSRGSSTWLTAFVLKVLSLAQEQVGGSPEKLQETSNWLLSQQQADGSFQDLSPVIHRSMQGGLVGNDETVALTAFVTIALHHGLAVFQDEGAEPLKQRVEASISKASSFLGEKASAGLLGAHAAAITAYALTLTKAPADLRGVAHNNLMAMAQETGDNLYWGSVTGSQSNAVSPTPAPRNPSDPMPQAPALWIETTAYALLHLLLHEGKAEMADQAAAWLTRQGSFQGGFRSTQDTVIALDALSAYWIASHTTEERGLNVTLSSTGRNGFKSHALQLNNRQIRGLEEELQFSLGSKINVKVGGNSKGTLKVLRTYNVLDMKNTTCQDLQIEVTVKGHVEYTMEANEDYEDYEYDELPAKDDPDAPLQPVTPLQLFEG

Sequence of WT; GGSSGG (SEQ ID NO: 6); CCP_2-4 (enzyme) (chain): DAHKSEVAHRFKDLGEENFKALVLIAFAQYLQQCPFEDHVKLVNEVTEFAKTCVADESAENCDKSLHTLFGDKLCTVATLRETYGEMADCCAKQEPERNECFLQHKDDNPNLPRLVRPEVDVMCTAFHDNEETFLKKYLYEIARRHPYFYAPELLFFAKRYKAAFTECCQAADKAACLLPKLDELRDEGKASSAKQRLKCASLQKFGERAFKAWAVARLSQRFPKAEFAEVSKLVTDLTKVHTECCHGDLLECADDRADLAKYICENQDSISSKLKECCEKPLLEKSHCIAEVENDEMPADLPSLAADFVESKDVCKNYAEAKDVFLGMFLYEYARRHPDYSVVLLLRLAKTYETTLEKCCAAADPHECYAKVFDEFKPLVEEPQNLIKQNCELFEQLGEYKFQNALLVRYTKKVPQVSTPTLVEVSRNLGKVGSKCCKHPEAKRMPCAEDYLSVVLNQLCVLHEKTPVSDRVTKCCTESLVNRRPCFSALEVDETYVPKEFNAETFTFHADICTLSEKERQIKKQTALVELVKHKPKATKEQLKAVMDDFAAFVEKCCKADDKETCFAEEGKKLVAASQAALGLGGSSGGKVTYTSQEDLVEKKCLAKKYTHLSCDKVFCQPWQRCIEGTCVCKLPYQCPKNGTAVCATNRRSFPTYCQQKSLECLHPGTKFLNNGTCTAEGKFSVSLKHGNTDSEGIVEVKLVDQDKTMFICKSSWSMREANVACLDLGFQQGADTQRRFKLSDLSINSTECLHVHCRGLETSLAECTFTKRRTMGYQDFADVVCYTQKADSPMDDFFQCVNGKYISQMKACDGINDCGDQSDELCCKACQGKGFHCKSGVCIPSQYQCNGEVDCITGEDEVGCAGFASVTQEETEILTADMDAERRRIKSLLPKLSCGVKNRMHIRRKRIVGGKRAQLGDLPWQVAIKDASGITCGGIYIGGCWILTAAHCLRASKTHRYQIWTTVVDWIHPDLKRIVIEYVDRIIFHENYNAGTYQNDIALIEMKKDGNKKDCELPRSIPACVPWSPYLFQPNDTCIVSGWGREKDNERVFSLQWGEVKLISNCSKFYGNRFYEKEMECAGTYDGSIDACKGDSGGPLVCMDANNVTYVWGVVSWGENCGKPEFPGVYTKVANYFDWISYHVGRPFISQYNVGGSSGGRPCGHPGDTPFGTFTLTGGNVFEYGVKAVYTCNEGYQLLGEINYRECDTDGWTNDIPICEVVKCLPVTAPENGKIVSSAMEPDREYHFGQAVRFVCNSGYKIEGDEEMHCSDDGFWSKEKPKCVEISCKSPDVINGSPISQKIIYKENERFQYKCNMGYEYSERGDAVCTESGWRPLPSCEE
Sequence of Δ(K1-P305); GGSSGG (SEQ ID NO: 6); fH_CCP2-3 (enzyme) (chain): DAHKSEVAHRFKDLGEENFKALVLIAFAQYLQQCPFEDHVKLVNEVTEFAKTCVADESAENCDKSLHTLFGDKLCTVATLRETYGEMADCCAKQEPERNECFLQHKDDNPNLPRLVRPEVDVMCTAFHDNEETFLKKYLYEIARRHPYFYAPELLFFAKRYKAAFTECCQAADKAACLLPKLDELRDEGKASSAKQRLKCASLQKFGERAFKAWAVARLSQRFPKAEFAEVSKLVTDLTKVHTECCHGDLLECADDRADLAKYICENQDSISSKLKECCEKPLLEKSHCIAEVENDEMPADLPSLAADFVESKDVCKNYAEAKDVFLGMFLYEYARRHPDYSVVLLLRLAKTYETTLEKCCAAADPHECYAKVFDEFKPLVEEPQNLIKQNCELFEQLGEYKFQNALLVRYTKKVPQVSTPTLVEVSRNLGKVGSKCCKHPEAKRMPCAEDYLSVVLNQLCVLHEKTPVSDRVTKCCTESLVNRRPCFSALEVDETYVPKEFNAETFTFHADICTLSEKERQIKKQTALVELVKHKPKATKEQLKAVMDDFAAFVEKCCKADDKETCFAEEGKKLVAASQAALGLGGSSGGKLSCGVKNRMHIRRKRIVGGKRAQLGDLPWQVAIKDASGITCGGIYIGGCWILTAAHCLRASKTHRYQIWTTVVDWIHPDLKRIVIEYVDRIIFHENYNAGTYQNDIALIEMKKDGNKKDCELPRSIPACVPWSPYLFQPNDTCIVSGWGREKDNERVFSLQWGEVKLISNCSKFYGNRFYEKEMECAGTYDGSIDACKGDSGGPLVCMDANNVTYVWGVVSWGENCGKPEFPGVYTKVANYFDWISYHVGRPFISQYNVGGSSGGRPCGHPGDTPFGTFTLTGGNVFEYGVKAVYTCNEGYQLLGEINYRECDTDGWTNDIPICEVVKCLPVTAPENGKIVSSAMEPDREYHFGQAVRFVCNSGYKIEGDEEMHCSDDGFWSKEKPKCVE

| Substance | iC3b Screen Ref Fold (fold vs CFI-HSA wild type) [1] | C4b Screen Ref Fold (fold vs CFI-HSA wild type) (human C4b (human)) | iC3b Screen Ref Fold (fold of CFI-HSA wild type) [1] | C4b Screen Ref Fold (fold of CFI-HSA wild type) (human C4b (human)) |
| --- | --- | --- | --- | --- |
| CFI-HSA N531G; P535A; R557A (enzyme) | 0.57 | 3.98 | – | – |
| CFI-HSA variant Y408G (enzyme) | 0.27 | 0.05 | – | – |
| CFI-HSA R557Q (enzyme) | 0.08 | 2.12 | – | – |
| CFI-HSA R365P (enzyme) | 0.07 | 0.18 | – | – |
| CFI-HSA Y408L; E457G; E461Q; R462K; N531G; GGSSGG (SEQ ID NO: 6); CR1 (ccp15-17) (from UniProt P17927) (enzyme) | 0.18 | 1.84 | – | – |
| CFI-HSA R484G (enzyme) | 0.77 | 0.64 | – | – |
| CFI-HSA variant Y408L; P535G; N422K (enzyme) | – | – | 1.03 | 0.17 |
| CFI-HSA D549F (enzyme) | 0.22 | 0.05 | – | – |
| CFI-HSA A366G (enzyme) | 1.46 | 0.74 | – | – |
| Δ(K1-P305); GGSSGG (SEQ ID NO: 6); fH_CCP2-3 (enzyme) | 0.01 | 0.05 | – | – |
| CFI-HSA variant Y408L; E457G; WT; GGSSGG (SEQ ID NO: 6); CR1(ccp15-17) (from UniProt P17927) (enzyme) | – | – | 0.12 | 3.18 |
| CFI-HSA R557L (enzyme) | 0.15 | 2.27 | – | – |
| CFI-HSA R456G (enzyme) | 0.03 | 0.04 | – | – |
| CFI-HSA variant P535G (enzyme) | 0.19 | 0.3 | – | – |
| CFI-HSA R365K (enzyme) | 1.01 | 0.39 | – | – |
| CFI-HSA K424Y (enzyme) | 0.95 | 0.42 | – | – |

| Substance | iC3b Screen Ref Fold (fold vs CFI-HSA wild type) [1] | C4b Screen Ref Fold (fold vs CFI-HSA wild type) (human C4b (human)) | iC3b Screen Ref Fold (fold of CFI-HSA wild type) [1] | C4b Screen Ref Fold (fold of CFI-HSA wild type) (human C4b (human)) |
| --- | --- | --- | --- | --- |
| CFI-HSA K424E (enzyme) | 1.08 | 0.23 | – | – |
| CFI-HSA variant M220A-K221Q (enzyme) | 0.49 | 1.85 | – | – |
| CFI-HSA variant P535G; N422K (enzyme) | – | – | 0.52 | 0.09 |
| CFI-HSA Y553E (enzyme) | 0.38 | 0.51 | – | – |
| CFI-HSA E457G; N531G; E461Q; R462K; F464Y; E530Y; GGSSGG (SEQ ID NO: 6); CR1(ccp15-17) (from UniProt P17927) (enzyme) | 0.01 | 2.87 | – | – |
| CFI-HSA K423E (enzyme) | 0.61 | 0.32 | – | – |
| CFI-HSA A342G (enzyme) | 1.23 | 0.91 | – | – |
| CFI-HSA K424L (enzyme) | 0.91 | 0.28 | – | – |
| CFI-HSA Y408L; E457G; N531G; E530Y (enzyme) | 2.07 | 4.16 | – | – |
| CFI-HSA E457G; D425R; E530Y (enzyme) | 1.73 | 4.29 | – | – |
| CFI-HSA S343G (enzyme) | 1.32 | 0.92 | – | – |
| fH_CCP1-4; GGGGSS(7); wt hCFI (enzyme) | 0.77 | 1.21 | – | – |
| CFI-HSA variant Y553H; F559L; V565I; P558S (enzyme) | – | – | 0.59 | 1.58 |
| CFI-HSA variant Y408R (enzyme) | 0.24 | 0.07 | – | – |
| CFI-HSA variant G556P; P558G (enzyme) | – | – | 0.68 | 1.86 |
| WT; GGSSGG (SEQ ID NO: 6); CCP_2-4 (enzyme) | 0 | 0.38 | – | – |
